From a protein production outcome set (Wang et al. 2014)

Experiment: label from the status in PepcDB records
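Also: failed if final PepcDB status was selected cloned or expressed and not failed if soluble or beyond.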

Row | Sequence | protein production
1 | MTPSISLITSYSLLPAILMLIGGGIASLYRPGGSITSATQHFAAGVVFAAVAKELLPKIGAYHDPLALIIGFSVGILAMLFLKWLANRLEDLEQEKTGLSWGLLTAVGIDLLIDGILIGVAFLAGERGGILIAIALAIEIFFLGLSTTATLGARQVNVPIRLLTSVILAILIPVGAALGASLLIHLPLSITNGILSFGVAALLYLVTEELLLEAHGVRETPYITLCFFIGFLLILLLEGLAA | failed
2 | MTPTPLHSITPFSMLDFPSMLSCILWFSGCNLACSYCYNPEFLKESGKIDLEGLLSFLRSRVGLLEGVVFSGGEATLFAGLPLWMEEVRSLGFKIKLDTNGTNPAMLKELLQKGYLDYVAMDFKGKEERFGMITGREFYGRFLESLEILLSSSIPFEIRTTVHSYLLQEEDIAEMAALLKERGYKGAFYLQHFVGEKETLKPLPESRRLKLDEEAIETKIIWR | failed
3 | MTPVQIAAVVVTYESSSTIDACLSRLRAAEGISEIRVVDNASSDDTLEVVQRHALADARLHFIANPDNPGFATACNQGARDSQAPWLVFINPDLMIARDTLLQLYHRAAGHPAVLLGVEQVDEQGRPDAAVRRRDPDFAAMLRAPRAAANLAVPADPSRALQPVDAISGALMLMQRSLFDRLDGWDGSYRLHAEDLDLCRRARQAGALVAVANDLHVLHVRGVSSRARPFFVEWHKHRGLWRYFRKFEADRRGLLTRLGVWLAIWSHAAAQVPRLLQNKLEHHHHHH | failed
4 | MTQANLSETLFKPRFKHPETSTLVRRFSHGAQPPVQSALDGKTIPHWYRMINRLMWIWRGIDPREILDVQARIVMSDAERTDDDLYDTVIGYRGGNWIYEWATQAMVWQQKACAEEDPQLSGRHWLHAATLYNIAAYPHLKGDDLAEQAQALSNRAYEEAAQRLPGTMRQMEFTVPGGAPITGFLHMPKGDGPFPTVLMCGGLDAMQTDYYSLYERYFAPRGIAMLTIDMPSVGFSSKWKLTQDSSLLHQHVLKALPNVPWVDHTRVAAFGFRFGANVAVRLAYLESPRLKVVACLGPVVHTLLSDFKCQQQVPEMYLDVLASRLGMHDASDEALRVELNRYSLKVQGLLGRRCPTPMLSGYWKNDPFSPEEDSRLITSSSADGKLLEIPFNPVYRNFDKGLQEITDWIEKRLC | failed
5 | MTQDASPILTSLLDTDAYKLHMQQAVFHHYRHITVAAEFRCRSDELLGVYADEIRHQVTLMGQLALTSDEFIYLSSLPFFQDDYLHWLRDFRFKPEQVSVAVHDGKLDIRIAGLWCEVIMWEVPLLAVISEIVHRRRSTQVTTDQAVQQLRTKLEQFNALSADIDITHFKLMDFGTRRRFSREIQHTVVSTLKDEFPYLVGTSNYDLARTLALAPVGTQAHEWFQAHQQISPTLANSQRVALQVWLDEYPNQLGIALTDCITMDAFLRDFDLAFANRYQGLRHDSGDPIEWGEKAIAHYEKLGIDPMKKVLVFSDNLDLEKALFLYRHFYQRIKLVFGIGTRLTCDIPDVKPLNIVIKLVECNDKPVAKLSDSPGKTICQDPAFVDQLRKAFALPLVKKAS | not failed
6 | MTQDELLVLIEQAATEGWRELDLSGQELTELPGEIGKLQQLESLILGKQVGGYEKVGYRIFQKALGNNLKTLPIELLSLPNLRKLDISGNPLEGIPDVVMQILHLEELILIRVQLTEIPEALAKLTNLTQLILSDNQITEIPEALAKLTNLTQLNLSYNQITEIPEALAKLTNLTQLNLSYNQITEIPEALAKLTNLTQLNLRGNQRTEIPEALAKLTNLTRLNLSYNQRTEIPEALAKLTNLTQLILSDNQIKEIPETIAKLTNLTHLILSGNQIKEIPETIAKLTNLTQLGLDGNQIKEIPEAIAKLTNLTQLGLDGNQIKEIPEAITKLTNLTHLILSGNQIKEIPETIAKLTNLTQLALSSNQITEIPEVLAQLTNLTQLFLSSNQITQIPEALAPLTNLTTLHLRVNQITQIPEAIESLPKLELLDLRGNPLPISPEILGSVYQVGSVEEIFNYLRLLRSGEVRPLNEAKLLLVGQGSVGKTSLIERLIHNKYDRNQPQTDGLKVETWNVQVNSKDIRLNVWDFGGQEIYHATHQFFLTKRSLYLLVCNCRTSEEENRIEYWLKLIESFGGQSPVIIVGNKKDEQPLDINRKALREKYPNIQAIIETSCQDNIGIDELRTAILQQVGNLKEVYDLLPLSWFEVKQQLESMSQDFITYSSYIGICYENKIPEEHNQEQLIDLLHRLGLVLNFREHPILRDTNVLKPNWVTEGIYALLSDENLKTKSKGIFTPADLTRVLNPERYPTKRHGYLIELMKEFELGFELACYPPQFLIAGLLPKDQPDATELEGETLEFQYHYKVLPESIISRFIVNTHERIHNQIYWRSGVMLQYQQHNEIYNIARIKADPEDKKIFIAISGRKETRRSFLAILRDVFQKIHKSLANLEITEWVPVPGYPNHPPLDYQELLGLETMGILEYPIGKLKININIRQLLDGYESLESRRKLQKGDHDLDDRTAYEDILDIAKLAVSRPIITKAEAKAVSENPQFTNNLQGANIANFANEVKDNASQQASNFNQTSGANIAEIMQLINNLRQTVAQFPPEIRDDIIIDIDDVEVEIQKPEKERNTPKLKKRLAALLTAASVAAAPIASVVDFTNNVMELGSKLGIELIQPSP | failed
7 | MTQDEQICSLALTRIPGLGPTGAFRLVSSLGSATRVFEHRKELSQLVPGVSEKIITALNNSEAFRRAEQELTFCEKNHIRCLTLNDEGYPGRLRECDDAPLALFYRGNADLNALHVINMVGTRHATPYGQDICTRFLADLSVLCPNALIVSGLAYGIDIHAHRAALQNHFKTIGVLAHGLDRIYPAEHRKTAVSMLEQGGLLTEFTSGTNPDRQNFVKRNRIVAGMSDATVVIESAAKGGALITAELAESYHRDCFAFPGRCNDEYSIGCNNLIRKNQAVLITSAEDLVKAMGWESSPKTEKTVQRELFPDLSEEEERIVKRLGKMSEGLQINTLVIDTNIPVNRMSALLFELEMKGVIRALAGGVYRLIM | not failed
8 | MTQDGTNILILGSDQRVTQGSTDARTDTIMVVNVGNHAKKIKMVSFMRDTLINIPGYSYNDNSYDLKLNSAFNLGEQEDHHGAEYVRRALKHNFDIDIKYYVMVDFETFAEAIDTLFPNGVKIDAKFATVGGVAVDSVEVPDDLRMKNGVVPNQTIEVGEQRMDGRTLLNYARFRKDDEGDFGRTVRQQQVMSAVMSQIKDPTKLFTGSAAIGKIYALTSTNVSFPFVVKNGVSVLGSGKNGVEHVTIPENGDWVDEYDMYGGQALYIDFDKYQKTLAKLGLRLEHHHHHH | not failed
9 | MTQHQTLPQTTEGAYHYQVIRRAIELIDQTDQPISLDEIAANMGMSPAHFQRVFSRWVGVLEHHHHHH | not failed
10 | MTQKEISIIHPRPSSIVAALYTLRDLNVDVAILHGPPGCSFKHARLLEEDGIHVVTTGLDENGFVFGGHDKLVQVINKSIELFNPKILGVVGTCASMIIGEEMHEAVLEANPDIPVIEVEVHAGYHNNTKGVIFALESALDAGIIDHKEFERQEYLLQKATEVEKKFGAASKEYLAPSRGDVKYKVAKRLVELLKEGKKGLVIMNAKKETGYMFADITLAVNEVAEALGKKENLVNMANIDPELGLPRVRQHAEYIMRDFKAHGVEIHEIIGGMDEYPVAGEKVSELIKEKYSDYDFAVITGVPHAVPMENIGHMELISITNGPRQVLPLKEMGHEHVMVEIDLHPKTLGVSQIVESEFGATLREVAKEA | failed
11 | MTQKFGLSAALTTPFKTDGTVDIDAMIAHARRCLSNGCDSVTLFGTTGEGCSVGSRERQAILSSFIAAGIAPSRIVTGVLVDSIEDAADQSAEALNAGARNILLAPPSYFKNVSDDGLFAWFSAVFSKIGKDARDILVYNIPSVTMVTLSVELVGRLKAAFPGIVTGVKDSSGNWSHTERLLKEHGDLAILIGDERDLARGVRLGGQGAISGVANFLTQEVRAMAVDGKDDPRIVDLVVELLKFPVTPAVKVLVSHTTGETIWSDVRAPLVAISPEDRRQIEGAFDALFRRQAA | not failed
12 | MTQKTGALIFDETADRYDIRFDLNDYYGGLHCGDCLEVFVRGKWKPTRMEYGDNWYLVGVRASDLNGLRVRILEHHHHHH | failed
13 | MTQPEETPVSFIPSNFIEKGKILNGTFDIRNAIESIVLSLAIGIPVFHLPLSLTARIIILCMTALPAAMVALIGIGGESITAFLMNALRFVVNRRVIWRSDSLPEGKPRRKPRFKEPKTKKHRKAEKMAEPSKVMASAPPQSEPDAPAPPKSKKKEHRQFDTSTKRGIKKQAKEDIRYLKWEQKEASRQKKEAAKQIKIQKKTEARRRKEEEKRAVSEKRAAKKEQKKKVVSKEDTSSATSKPVSRKKRKKDQTLEDYLPVEKIANGIVYTTDGRYVKILEIEPINFLLRSAREQQGIIYSFISYLKISPVKLQIKMISKKADINKHLEQSQLELERETDPHCQELQRDYIQFVQNLSSREAVSRRFFLIFEYEPFNANRKEEEREILAALETASQTAKTFLYQCGNEVVSHDNEDEFTTDVLYTLLNRTLCTEVPLSNRISTVLSAYTKENRMEELDHIRINEFLAPESVDFKHSHYVQINGLYHSYLLVPSDGYKNRVTPGWLSLLVNAGEGIDIDFFLQKQPKDKIQQRLGQQIRINRSKLKDASDTNTDYDDLDSAIRSGYFLKQGLANNEDFYYMNLLITITASTLEELQWRIQEMKKLLISQDMNLHSCYFLQEQGFLSSLPLANLDKKLFKLSKRNVLTSGAASCYPFVSYSICDDNGILFGVNKHNNSLVIADIFDSRQYKNSNICILGCSGAGKTFTMQTMALRMRRKGIQVFIIAPLKGHEFYRAARNVGGEFIQISPASKNCINIMEIRKVDNSVNELLDGPTLDASALAGKIQRLHIFFSLLIPDMSHEEKQLLDEALIKTYARKGITHKNESLTDPQHPEQYKKMPILEDVYNVLLESEDTKRLAHILNRLVHGSASSFNQQTNVDLTNKYTVLDISELTGSSDLLTVGMFVALDYVWDKAKENRTEEKAIFVDEVWQLIGASSNRLAAEFVLEIAKIIRAYSGAGIFATQDLNDFFALDDGKYGKGIINNCKTKIILNMEDEEAQRVKTILHLSETEVMNITHFQRGNGLISTNNNNITVEFKASNLEKELITTERQELLEILAKQKKQAV | failed
14 | MTQQDFRTKVDNTVFGVRATALIVQNHKLLVTKDKGKYYTIGGAIQVNESTEDAVVREVKEELGVKAQAGQLAFVVENRFEVDGVSYHNIEFHYLVDLLEDAPLTMQEDEKRQPCEWIDLDKLQNIQLVPVFLKTALPDWEGQLRHIHLEE | not failed
15 | MTQSQTNDGAGAGAVTTVESVPPQPQSQPQPQPQQQSNEMVLHTGSLSFSSHMSREDEEMTRSALSAFRAKEDEIEKRRMEVRERIQAQLGRVEQETKRLSTIREELESMADPRIWPSELESMADPMRKEVSVVRKKIDSVNKELKPLGSTVQKKAEQNSIFGNEMKQEREYKEALDTFNEKNREKVQLITKLMEMEQLVGESEKLRMIKLEELSKSIETV | not failed
16 | MTRADCRSRLMEVATELFAQKGFYGVSIRELAQAAGASISMISYHFGGKEGLYAAVLQEQFACFGQLDDIRGQAGDPLAVMTAYLRWTIQRHRNNPQLLRFYTSELTNPTPCFAAIVSPAIASVIRLLAESIEAGMTRGLFRRDLHAVNSALALAGMVNYFFLSTLATEGLTSHSPDQDEELIRQYVAIFTRGIMADGGAAPA | not failed
17 | MTRAINDPGNEDPGSLLETDADALLGGAAAQAPEERCRLAAQACIRACERYLALCTESSREQRQHAGDCADLCRLAALLLERRSPWAPAACELAARYALACAERCDGDEPLERECAGACRRFVEACRPLLPA | not failed
18 | MTRFIHTADWQIGRQYGQFDSDDAAVLAEARLEPVARIAAQASELAVDAVLVAGDVFDTQSVSDRTIRRLFGAMQAYEGPWVLIAGNHDAALADSVWSRARRLECIGTNVHVPQDTAAVELPLAGLAVLAAPLTQRHTYDDVTAAFDTMDSAAGLVRVGLAHGSVADRLPEQADAANPIAPDRAQRARLDYLALGDWHGCLRIDERTWYAGTPEPDRFRGNAPGYALLVEVAAPGAPPQVRQLEVGKYRWSHWVERLDLASDAEDLGHRLAGLQAGDVLRLELHGALSLARRWDALRRDVERAAARVRALVADSAGLVLEPDAADLAALSVDGYVGAAAARLQAMQGDGAQAAAARVALRLLLQYQRELAEGAS | failed
